Assay results published in patent US10456465B2, “Compositions, kits, and methods for the diagnosis prognosis, monitoring, treatment and modulation of post-transplant lymphoproliferative disorders and hypoxia associated angiogenesis disorders using galectin-1” (Dana-Farber Cancer Institute, Inc., priority 2009, dated 2019).

Key:
[1] = test system: B16 tumors; assay: Anti-tumor immune response in B16 tumor-bearing mice (TDLN restimulation, FACS); type: in vivo, mouse
Procedure: Wild-type KS cells or shRNA clones (5×10^6 cells) were injected subcutaneously into 6- to 8-week old nude mice. Wild-type B16 cells or shRNA clones (2×10^5 cells) were injected into 6- to 8-week old B6 or B6/Rag^−/− mice and tumor development was monitored as described in Rubinstein et al. (2004) Cancer Cell 5, 241-251. Treatments with 8F4F8G7 mAb or control isotype (2.5, 7.5 or 15 mg/kg; i.p. injections every three days) were initiated when tumors reached 100 mm^3. Mice were sacrificed when tumors reached a volume greater than 2 cm^3. At 2 weeks after tumor challenge, lymph node cells (5×10^5 cells/well) were restimulated for 72 h with 1×10^4 irradiated (4,000 rads) B16 cells and were analyzed for proliferation and cytokine production. For adoptive transfer, splenic T cells (5×10^6) from tumor-bearing mice were labeled with CFSE (Molecular Probes) and injected through the tail vein into tumor-bearing recipient mice treated with 8F4F8G7 or control mAb. In related studies, fluorescent beads (3 μm; BD Biosciences), rather than splenic T cells, were injected into tumor-bearing animals treated with 8F4F8G7 or control antibody. CFSE^+ cells or PerCP-labeled beads were analyzed after 24 h or 15 min respectively by flow cytometry in tumor parenchyma and spleen.
For intracellular cytokine staining, TLDN or tumor-infiltrating lymphocytes were made permeable with Perm2 solution (BD Biosciences) and were labeled with fluorescent-labeled monoclonal anti-IFN-γ (XMG1.2; BD Biosciences), anti-IL-17 (TC11-18H10; BD Biosciences), anti-IL-10 (JESS-16E3; eBioscience), anti-CD4 (GK1.5; BD Biosciences), anti-CD8 (H35-17.2; eBioscience) antibodies. Treg cells were determined by using the mouse Treg staining kit (FJK-16s, eBioscience). Cells were analyzed on a FACSAria (BD Biosciences) using a FlowJO software.
Mouse IFN-γ and IL-10 ELISA sets were from BD Biosciences and mouse IL-17 kit was from R&D. Human soluble VEGF was assessed by ELISA (DY293B; R&D). Soluble Gal1 was determined using an in-house ELISA. Briefly, high binding 96-well microplates (Corning Costar) were coated with capture antibody (2 μg/ml purified rabbit anti-Gal1 polyclonal IgG) in 0.1 M sodium carbonate pH 9.5. After incubation for 18 hours at 4° C., wells were rinsed three times with wash buffer (0.05% Tween-20 in PBS) and incubated for 1 h at RT with blocking solution (2% BSA in PBS). Samples and standards (100 μl) were diluted in 1% BSA and incubated for 18 hours at 4° C. Plates were then washed and incubated with 100 ng/ml biotinylated detection antibody (purified rabbit anti-Gal1 polyclonal IgG) for 1 hour at RT. Plates were rinsed three times before adding horseradish peroxidase-labeled streptavidin (0.33 μg/ml; Sigma) for 30 min at RT. After washing, 100 μl of TMB solution (0.1 mg/ml tetramethylbenzidine and 0.06% H2O2 in citrate-phosphate buffer pH 5) was added to the plates. The reaction was stopped by adding 4N H2SO4. Optical densities were determined at 450 nm in a Multiskan MS microplate reader (Thermo Electron Corporation). A standard curve ranging from 2.5 to 160 ng/ml recombinant Gal1 was run in parallel.

[2] = test system: KS tumors; assay: KS xenograft in nude mice; type: in vivo
Procedure: HUVEC transfected or not with specific siRNA or pre-incubated with signaling pathway inhibitors were exposed to VEGF or Gal1 with or without lactose, sucrose, 8F4F8G7 mAb or control isotype (IgG1κ) or specific antibodies for VEGFR1 (AP-MAB0702; Abcam), VEGFR2 (AF357; R&D), VEGFR3 (AB89501; Abcam) or VEGF (MAB293; R&D). Cells were processed for proliferation, migration, invasion and tube formation assays. Tumor-associated blood vessels were identified by flow cytometry using Alexa Fluor 647-conjugated anti-CD34 antibody (RAM34; eBioscience).
Wild-type KS cells or shRNA clones (5×10^6 cells) were injected subcutaneously into 6- to 8-week old nude mice. Wild-type B16 cells or shRNA clones (2×10^5 cells) were injected into 6- to 8-week old B6 or B6/Rag^−/− mice and tumor development was monitored as described in Rubinstein et al. (2004) Cancer Cell 5, 241-251. Treatments with 8F4F8G7 mAb or control isotype (2.5, 7.5 or 15 mg/kg; i.p. injections every three days) were initiated when tumors reached 100 mm^3. […] At 2 weeks after tumor challenge, lymph node cells (5×10^5 cells/well) were restimulated for 72 h with 1×10^4 irradiated (4,000 rads) B16 cells and were analyzed for proliferation and cytokine production. […] CFSE^+ cells or PerCP-labeled beads were analyzed after 24 h or 15 min respectively by flow cytometry in tumor parenchyma and spleen.

[3] = restimulated ex vivo with B16 cells

B1: anti-Gal1 monoclonal antibody 8F4F8G7 (antibody, V domains shown)
VH: EVQLQQSVAEFVRPGASVRLSCTASGFNIKNTYIHWVRQRPEQGLEWIGKIDPANGNTKYVPEFQGKATMTADTSSNTVYLHLSSLTSEDTAIYYCVDGYYGWYFAVWGTGTTVTVSS
VL: QAVVTQESALTTSPGETVTLTCRSSTGAVTTSNYANWVQEKPDHLFTGLIGATNNRAPGVPARFSGSLIGDKAVLTITGAQTEDEAIYFCALWYRNHFIFGSGTKVTVL
notes: Murine hybridoma mAb (deposit PTA-10535), lambda light chain; also called 14-19 8F4-F8-G7; clone 8F4.8F.67
B16-specific IL-10 production ([1]; mouse, in vivo): blunted
proliferation of tumor-draining lymph node cells [1, 3]: stimulated
synthesis and secretion of IFN-γ by tumor-draining lymph node cells [1, 3]: stimulated
synthesis and secretion of IL-17 by tumor-draining lymph node cells [1, 3]: stimulated
frequency of CD4+CD25+FoxP3+ Treg cells in TDLN ([1]; vs isotype control): decline
number of tumor-infiltrating IFN-γ-producing CD8+ T cells ([1]; vs isotype-treated mice): dramatic increase
tumor microvasculature ([2]; CD34+ ECs and tumor hemoglobin content, vs isotype control): significant reduction
tumor growth ([2]; established KS tumors, 2.5, 7.5 or 15 mg/kg i.p. every three days): dose-dependent delay
